Measured values from the supplement of paper PMC7125110.
± gives the standard error. Variants at the floor of the assay were thinned out.

B1: glmS ribozyme (parent)
chain: AUAAAAGCGCCAGAACUACAGAAAUGUAGUUGACGAGGAGGAGGUUUAUCGAAUUUUCGGCGGAUGCCUCCAAA

Key:
Conditions in all cases: with glucosamine-6-phosphate
glucosamine-6-phosphate [1] = variants of: B1; test: self-cleavage kobs at 40 uM GlcN6P; higher = faster cleavage; RNA array
How it was run: (§1)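 Glucosamine-6-phosphate, from 40 μM to 10 mM in HEPES/KCl/Mg(OAc)2 buffer, was flowed over sequenced MiSeq chips carrying barcoded ribozyme variants transcribed in situ by E. coli RNA polymerase. A hybridised Cy3 probe tracked the variants at 37 °C as tiles were imaged over ~14 h. kobs, kcat and KM were obtained by fitting normalised per-tile medians to exponential decays and then applying weighted Michaelis–Menten fits across concentrations.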

glucosamine-6-phosphate [2] = variants of: B1; test: self-cleavage kobs at 160 uM GlcN6P; higher = faster cleavage; RNA array
How it was run: as §1

glucosamine-6-phosphate [3] = variants of: B1; test: self-cleavage kobs at 2500 uM GlcN6P; higher = faster cleavage; RNA array
How it was run: as §1

glucosamine-6-phosphate [4] = variants of: B1; test: self-cleavage kobs at 640 uM GlcN6P; higher = faster cleavage; RNA array
How it was run: as §1

glucosamine-6-phosphate [5] = variants of: B1; test: self-cleavage kobs at 10000 uM GlcN6P; higher = faster cleavage; RNA array
How it was run: as §1

C8A U47C U65A
self-cleavage kobs at 40 uM GlcN6P (glucosamine-6-phosphate [1]): < 1e-05 s⁻¹

G7A A39C G51U
self-cleavage kobs at 40 uM GlcN6P (glucosamine-6-phosphate [1]): < 1e-05 s⁻¹
self-cleavage kobs at 160 uM GlcN6P (glucosamine-6-phosphate [2]): < 1e-05 s⁻¹
self-cleavage kobs at 2500 uM GlcN6P (glucosamine-6-phosphate [3]): < 1e-05 s⁻¹

A6G U55G G66C C70A
self-cleavage kobs at 40 uM GlcN6P (glucosamine-6-phosphate [1]): 0.000223 ± 8.2e-05 s⁻¹
self-cleavage kobs at 640 uM GlcN6P (glucosamine-6-phosphate [4]): 0.000697 ± 0.00025 s⁻¹
self-cleavage kobs at 2500 uM GlcN6P (glucosamine-6-phosphate [3]): 0.000623 ± 0.0002 s⁻¹
self-cleavage kobs at 10000 uM GlcN6P (glucosamine-6-phosphate [5]): 0.000165 ± 5.3e-05 s⁻¹

C8A C11U G38C C50U
self-cleavage kobs at 40 uM GlcN6P (glucosamine-6-phosphate [1]): < 1e-05 s⁻¹
self-cleavage kobs at 640 uM GlcN6P (glucosamine-6-phosphate [4]): < 1e-05 s⁻¹
self-cleavage kobs at 2500 uM GlcN6P (glucosamine-6-phosphate [3]): < 1e-05 s⁻¹

G7C G35A
self-cleavage kobs at 40 uM GlcN6P (glucosamine-6-phosphate [1]): < 1e-05 s⁻¹
self-cleavage kobs at 640 uM GlcN6P (glucosamine-6-phosphate [4]): < 1e-05 s⁻¹
self-cleavage kobs at 2500 uM GlcN6P (glucosamine-6-phosphate [3]): < 1e-05 s⁻¹
self-cleavage kobs at 10000 uM GlcN6P (glucosamine-6-phosphate [5]): < 1e-05 s⁻¹

A6U C16A C34A G38C
self-cleavage kobs at 40 uM GlcN6P (glucosamine-6-phosphate [1]): < 1e-05 s⁻¹
self-cleavage kobs at 640 uM GlcN6P (glucosamine-6-phosphate [4]): < 1e-05 s⁻¹
self-cleavage kobs at 10000 uM GlcN6P (glucosamine-6-phosphate [5]): < 1e-05 s⁻¹

G7U C19A A36G A39C
self-cleavage kobs at 40 uM GlcN6P (glucosamine-6-phosphate [1]): < 1e-05 s⁻¹
self-cleavage kobs at 10000 uM GlcN6P (glucosamine-6-phosphate [5]): < 1e-05 s⁻¹

G7C G13C G63U C70G
self-cleavage kobs at 40 uM GlcN6P (glucosamine-6-phosphate [1]): < 1e-05 s⁻¹
self-cleavage kobs at 640 uM GlcN6P (glucosamine-6-phosphate [4]): < 1e-05 s⁻¹
self-cleavage kobs at 2500 uM GlcN6P (glucosamine-6-phosphate [3]): < 1e-05 s⁻¹
self-cleavage kobs at 10000 uM GlcN6P (glucosamine-6-phosphate [5]): < 1e-05 s⁻¹

A6U C11U G13A
self-cleavage kobs at 40 uM GlcN6P (glucosamine-6-phosphate [1]): < 1e-05 s⁻¹
self-cleavage kobs at 10000 uM GlcN6P (glucosamine-6-phosphate [5]): < 1e-05 s⁻¹

G7C G13U A33G U45G
self-cleavage kobs at 40 uM GlcN6P (glucosamine-6-phosphate [1]): < 1e-05 s⁻¹

G7U U57A
self-cleavage kobs at 40 uM GlcN6P (glucosamine-6-phosphate [1]): < 1e-05 s⁻¹
self-cleavage kobs at 160 uM GlcN6P (glucosamine-6-phosphate [2]): < 1e-05 s⁻¹
self-cleavage kobs at 640 uM GlcN6P (glucosamine-6-phosphate [4]): < 1e-05 s⁻¹
self-cleavage kobs at 10000 uM GlcN6P (glucosamine-6-phosphate [5]): < 1e-05 s⁻¹

G7C G51A U56A C67G C68A
self-cleavage kobs at 40 uM GlcN6P (glucosamine-6-phosphate [1]): 0.000619 ± 0.0002 s⁻¹
self-cleavage kobs at 10000 uM GlcN6P (glucosamine-6-phosphate [5]): 7.59e-05 ± 1.5e-05 s⁻¹

C8A A53G G63A
self-cleavage kobs at 40 uM GlcN6P (glucosamine-6-phosphate [1]): < 1e-05 s⁻¹
self-cleavage kobs at 640 uM GlcN6P (glucosamine-6-phosphate [4]): < 1e-05 s⁻¹

G7U G32A G43A
self-cleavage kobs at 40 uM GlcN6P (glucosamine-6-phosphate [1]): < 1e-05 s⁻¹
self-cleavage kobs at 160 uM GlcN6P (glucosamine-6-phosphate [2]): < 1e-05 s⁻¹
self-cleavage kobs at 640 uM GlcN6P (glucosamine-6-phosphate [4]): < 1e-05 s⁻¹
self-cleavage kobs at 10000 uM GlcN6P (glucosamine-6-phosphate [5]): < 1e-05 s⁻¹

C8A G38C C71A
self-cleavage kobs at 40 uM GlcN6P (glucosamine-6-phosphate [1]): < 1e-05 s⁻¹
self-cleavage kobs at 640 uM GlcN6P (glucosamine-6-phosphate [4]): < 1e-05 s⁻¹

C8A A48C
self-cleavage kobs at 40 uM GlcN6P (glucosamine-6-phosphate [1]): < 1e-05 s⁻¹
self-cleavage kobs at 160 uM GlcN6P (glucosamine-6-phosphate [2]): < 1e-05 s⁻¹
self-cleavage kobs at 640 uM GlcN6P (glucosamine-6-phosphate [4]): < 1e-05 s⁻¹
self-cleavage kobs at 2500 uM GlcN6P (glucosamine-6-phosphate [3]): < 1e-05 s⁻¹
self-cleavage kobs at 10000 uM GlcN6P (glucosamine-6-phosphate [5]): < 1e-05 s⁻¹

G7U G32U C67G
self-cleavage kobs at 40 uM GlcN6P (glucosamine-6-phosphate [1]): < 1e-05 s⁻¹
self-cleavage kobs at 2500 uM GlcN6P (glucosamine-6-phosphate [3]): < 1e-05 s⁻¹
self-cleavage kobs at 10000 uM GlcN6P (glucosamine-6-phosphate [5]): < 1e-05 s⁻¹

C8A A15G G60A
self-cleavage kobs at 40 uM GlcN6P (glucosamine-6-phosphate [1]): < 1e-05 s⁻¹
self-cleavage kobs at 640 uM GlcN6P (glucosamine-6-phosphate [4]): < 1e-05 s⁻¹
self-cleavage kobs at 2500 uM GlcN6P (glucosamine-6-phosphate [3]): < 1e-05 s⁻¹

G7A G32U U47G C50U G63A C67G
self-cleavage kobs at 40 uM GlcN6P (glucosamine-6-phosphate [1]): 0.000556 ± 0.00014 s⁻¹
self-cleavage kobs at 10000 uM GlcN6P (glucosamine-6-phosphate [5]): 0.000988 ± 0.00041 s⁻¹

G7A G9C C16G
self-cleavage kobs at 40 uM GlcN6P (glucosamine-6-phosphate [1]): < 1e-05 s⁻¹
self-cleavage kobs at 160 uM GlcN6P (glucosamine-6-phosphate [2]): < 1e-05 s⁻¹
self-cleavage kobs at 640 uM GlcN6P (glucosamine-6-phosphate [4]): < 1e-05 s⁻¹
self-cleavage kobs at 10000 uM GlcN6P (glucosamine-6-phosphate [5]): < 1e-05 s⁻¹

G7C U56A G60U G62A
self-cleavage kobs at 40 uM GlcN6P (glucosamine-6-phosphate [1]): < 1e-05 s⁻¹

G7U G35U G38U G59C
self-cleavage kobs at 40 uM GlcN6P (glucosamine-6-phosphate [1]): < 1e-05 s⁻¹
self-cleavage kobs at 10000 uM GlcN6P (glucosamine-6-phosphate [5]): < 1e-05 s⁻¹

G7U A42G U49G C70G
self-cleavage kobs at 40 uM GlcN6P (glucosamine-6-phosphate [1]): < 1e-05 s⁻¹

G7U C8A U47G G60U
self-cleavage kobs at 40 uM GlcN6P (glucosamine-6-phosphate [1]): < 1e-05 s⁻¹
self-cleavage kobs at 10000 uM GlcN6P (glucosamine-6-phosphate [5]): < 1e-05 s⁻¹
